Experimental data published in the nanobody polyreactivity screen of Harvey et al. (2022).

Assay: yeast display, Sf9 membrane polyspecificity reagent, FACS + sequencing; frameworks hold sequencing errors
Procedure, shortened: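 Genes from sorted yeast were amplified by colony PCR, read by MiSeq 2 × 250 sequencing and filtered on CDR length. These cells carried a synthetic nanobody library in Saccharomyces cerevisiae BJ5465 and were sorted by FACS into low and high (top ~1%) gates on anti-HA and streptavidin fluorescence. Polyreactivity is labelled according to the gate of origin.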

Row | Sequence | polyreactivity (PSR sort gate)
1 | QVLLVESGGGLVQAGGSLRLSCAASGSIFIANAKGWYRQAPGKERELGAAIDSGGSTNYADSVKGRFTISRDNAKYTVYLQMNSLKPEDTAVYYCAADGTLTAPGGDYWGQGTQVTVSS | high polyreactivity
2 | QVLLVESGGGLVQAGGSLRLSCAASGSTFWRNAMGWYRQATGKERELVAVISGSGSRTFYADSVKGRFTISRDNAKNTVNLQMNSLKPEDTAVYYCAADARQYQGFDYWGQGTQVTVSS | high polyreactivity
3 | QVLLVESGGGLVQAGGSLRLSCAPSGRTVDSYAMGWYRQAPGKETELVAAIDWGGGTTYYADSVKGRFRISRDNAKNSVYLQMNSLKPEDTAVYYCAAGDVWIAPYDSWGQGTQVTVSS | low polyreactivity
4 | QVLLVESGGGLVQAGGSLRLSCAPSGSIFDYYTMGWYRQAPGKERELVAAISSDGSTNYADSVKGRFTISRDNAKNTVYLQMNTLKPEDTAVYYCADSTYRFYYYLKRGYWGQGTKVTVSS | low polyreactivity
5 | QVLLVESGGGLVQAGGSLRLSSAASGSIFVCNAMGWYRQAPGKERELVAAIRGVDSTYYGDSVKGRFTISRDNGKNTFFLQMNSLKPEDTAFYYCATLGPGFPRYYDWGQGTQVTVSS | high polyreactivity
6 | QVLLVESGGGLVQEGGSLRLSCAASGITFDTYAMGGYRQAPGKEREFVASIKWITGNTYYEDSVKGRFTISRDNAKNTVYLQMNSLKTEDTAVYYCAARTYYVRGLGGRPGMDYWGQGTQVTVSS | low polyreactivity
7 | QVNLLDSGGGLVKAGGSLRLTCAASGSIYHPYTMGLYRQATGKETELVAAISWSGGNTNYADSVKGRFTISRDYAKNTVYLQMNSLKPEDTAVYYFAAAKRDFVEYDYWGEGTQVTVSS | low polyreactivity
8 | QVNLVQSAGGLVQAGCSLRLSCPASGFILYKNAMGRYRQKPGKERELVAISSSGGSTYYADSVKGRFTISRENAKNTVYLLMNSLKPEDTAVYYCGAYIYGTYYYWGQGTQVTVSS | high polyreactivity
9 | QVPLVESGGGIDQAGGSLRLSCAASGFIFCTYTMGWYIQAPGNEWELVAAISKSSGSTYYADSVKGRFTISRDNAKKTVYLQMNSLKPEDTAVYYCAAPTRSYGTPPYDYWGQGTQVTVSA | low polyreactivity
10 | QVPLVESGGGLVQAGGSLRLSWAASGRTFVPYAMGWDSPAPGKDWELVAAISSGGDTNYADSVKGRVTISRDNAKNTVYLQMNSLKPEDTAVSYCAADVKRDRVWGGDYWGQGTQVTVSS | low polyreactivity
11 | QVPLVESGGGLVQAGVSLRLSCAASGSIFYLYAMGWYRQAPGKERELVAAISRSGASTYYADSVKGRFTISRDNAKNTVYLQMNSQKPEDTAVYYCAAYKIWGRVRYDYWGQGTQVTVSS | low polyreactivity
12 | QVPLVESVGGLVQAGGSLRLSCAASGRIFRANAMGWYRQAPGKEREFVAAINFSVSSTYAYSVKGRFTISRDNAKNTVYLQMNSLKPEDTAVYYCAATPTREGEYWGQGTQVTVSS | low polyreactivity
13 | QVQFVESGGGVVQAGGSLRLSCAASGNIPYWYAMGWSRPAPAKERELVAAISSRGNTYYADSVKGRFTISRDNAKNNVYLQMNSLKQEDTAVYYCAAYAGSFYYWGQGTQVTVSS | high polyreactivity
14 | QVQHAESGGGLDQAGGSLRLSCAASGGNFQANAMGWSRQATGKEREFVATITRGGGSTYYADSVKGRFTISRDNAKNTVYLQMNSLKPEDTAVYYCNSKPSYYQRYNYWGQGTQVTVSS | high polyreactivity
15 | QVQHDQSGGGLVQAGGSLRLSCAASGRTFKPYVMGRYREAPGKERELVAAISSRGDITYYADSVKGRFTITRDNAKNTVYLQMNSLKPEDTAVYYCNAGPAVRSAYSTPYYDYWGQGTQVTVSS | low polyreactivity
16 | QVQHEDSGGGLVQAGGSHRVSCAASGSTFAYNAMGGSRKAPGKERELVATISTDGSTYADSVKGRFTISRDNAQNTVYLQMNSLKPEDTAVYYCNADGHPSDPGYDYWGQGTQVTVSS | low polyreactivity
17 | QVQHEESGGGLVQAGGSLRLSCAASGSIFSDYALGWYRPAPGKERELVAAITINGGSTYYADSVKGRFTISRDNAKITVYLQLNSLKPEDTAVEYCNAGWGRLYDYWGQGTQVTVSS | low polyreactivity
18 | QVQHGESGGGLVQAGSSLRLSCAASGSTIVNNAMGWYRQAPGKERELVAANTSGGSTNYADSVKGRFTISRDNAKNTVYLQMNSLKPEDTAVYYSNADGDSWYTGIPAVSHGYWGQGTQVTVSS | low polyreactivity
19 | QVQHVASGGGIDQAGGSLRLSCAASGFIFSWYALGWYRQAPGKERELVAGISIRGGRTYADSVKGRFTISRDNAKNTVYLQMNSLTPEDTAVYSCATRSYRPYHSLYDYWGQGTQVTVSS | high polyreactivity
20 | QVQHVDSGGGLDHAGGSLRLSCAASGSIFAGYAMGWYRQAPAKERELDAAISSTGGRTYYADSVKGRFTISRDNAKTSVYLQMNSLKPEDTAVYYCGGAYYASYYYWGQGTQVTVSS | high polyreactivity
21 | QVQHVDSGGGLVQAGGSLRLSCAASGSTFGYNAMGWYRQAPGKERELVAAITFSGDSTSYADSVKGRFTISRDNAKNSVYLQMNSLKPEDTAVYYCAVDTWNGDGSGYSLEFEYWGQGTQVTVSS | low polyreactivity
22 | QVQHVESCGGLVQAGGSLRLSCAASGSIFTYYAMGWYRQAPGKEREFVAAISRRGGSTYYADSVKGRFTISRDNAKNTVYLQMNSLKPEDTAVYYCNARYTGSSLYYWGQGTQVTVSS | high polyreactivity

Row | Sequence | polyreactivity (PSR sort gate)
23 | QVQHVESCGGLVQAGGSLRLSCAASGYIFSIYAMGWSRQAPGKERELVAAITWSGATTYYADSVKGRFSISRDNAKNTVYLQMNSLKPEDTAVYYCNADYWHYYEDYESWGQGTQVTVSS | low polyreactivity
24 | QVQHVESGEGLVQAGGSLRLSCAASGSIFAGYAMGWYRQAPGKERELVAAITSSGGSTYYADSVKGRFTISRDNAKNTVYLQMNSLKPEDTAVYYCAKDKLIFYRVGSDYWGQGTQVTVSS | low polyreactivity
25 | QVQHVESGGGIVQAGGSLRISCSASGRTLGYYAMGLYRQAPGKETEMVAASSRSGGSTYYADSVQGRFTNSRDNAKNTVYVEMQSLNPEDTAVYDCAATYGPSRYRYDYWGQGTQVTVSS | high polyreactivity
26 | QVQHVESGGGIVQAGGSLRLSCAASGRTFGPYAMGWYRQAPGKEWELVAVISGRGTSTYYADSVKGRFTISRDNAKNTVYLQMNSLKPEDTAVYYCKADYGSWFWGFDYWGQGTQVTVSS | low polyreactivity
27 | QVQHVESGGGIVQAGGSLRLSCAASGSTFWRNAMGWYRQAPGKEREFVASISWSGGGTYYADSVKGRFTISRDNEKNTVYLQMNSLKPEDTAVYYCAATPDWSYWYGNGDYDYWGQVTQVTVSS | low polyreactivity
28 | QVQHVESGGGLDQAGGRLRLSCAASGFTFARNAMGWYRQAPGKDRELVAAINRSGGSTYYADSVKGRFTISRDNAKNTVYLQMNSLKPEDTAVYYCNAPYAQFTSGYDYWGQGTQVTVSS | high polyreactivity
29 | QVQHVESGGGLDQAGGSLRLRCAAYGFTFSFYAMGWYRQEPGKERELVAAISYSGGITYYADSVKGRFTISRDNAKNTVYLQMNSLKPEDTAVYYCAAVPYYSKGSSLYNSGNNYWGQGTQVTVSS | low polyreactivity
30 | QVQHVESGGGLDQAGGSLRLSCAASGSILTRYVMGWYRQAPGKERELVAAISQRGGSTYYADSVTGRFTISRDTAKYTVFLQMNSLKPEDTAVYYCAAETRVTSRRRFDYWGQGTQVTVSS | high polyreactivity
31 | QVQHVESGGGLEQARGSLRLTCAASGRTFRYYAMAWYRQAPGKERELVASISDGGSTNYADSVNGRFTITRDNAKNTVYLQMNRLKPEDTAVYYCNSKCYVWYLYDEFGYWGQGTQVTVSS | low polyreactivity
32 | QVQHVESGGGLGQAGGSLRLSCAASGRIFDEYALGSYRQAPGKERELVAAISLIGASTYYADSVKGRFTISRDTAKNTVYLQMNSQHPEDTAVYYCAAEYAFVVPGYYREVYYWGEGTQVTVSS | low polyreactivity
33 | QVQHVESGGGLGQARRSLRLSCAASGTIINANAMGWDRQAPGKERELVASISGGAGSTYYADSVKGRFTISRDNAKNTVYLQMNSLKPEDTAVYYCAADRPYRYDYWGQGTQVTVSS | low polyreactivity
34 | QVQHVESGGGLLQAGGSLRLSCAASGGTFTPNVMGWYRQAPGKVRELVAAIDDSGSRTYYADSVKGRFTISRDYAKNTVYLQMNSLKPEDTAVYFCAVFWYGTYPMYYWGQGTQVTVSS | low polyreactivity
35 | QVQHVESGGGLLQAGGSLRLSSAATGSTNAMGWYRQAHGKERELVAAISRRGGSTYYADSVKGRFTISRDNAKKTVYLQMFSLKPEDTAVYYCAAPYSTFSYVYWGQGTQLTVSS | high polyreactivity
36 | QVQHVESGGGLVQAGASLRLSCAASGLTFYRYALGWYRQARGNERELVAAITSGTRTYYADSVKGRFTISRDNAKNTVYLQMYSLKPEDTAVYYCAASWQTRTYQSRYYYWGQGTQVTVSS | high polyreactivity
37 | QVQHVESGGGLVQAGGILRLSSAASGSTFVKNGMGWSRQAPGKERELVAAISGRRGSTYYADSVKGRFTISRDNAKNTVYLQMNSLKPEDTAVYYCNKAYSVAYTYNYWGQGTQVTVSS | high polyreactivity
38 | QVQHVESGGGLVQAGGRLRLSCAASGRIFGGYTMGWYRQAPGKERELVAAINSGGSTYYADSVKGRFTISRDNAKNTVYLQMNCLKPEDTAVYYCAKVRSYFGKYGYGYWGQGTQVTVSS | high polyreactivity
39 | QVQHVESGGGLVQAGGRLRLSCAASGRTFPRYAIGLYRQAPGKERELVAAISVLAGITYYADSVKGRFTISRDNAKNTVYLQMNSLKPEDTAVYYCAKDHWTTSYDEGDYWGQGPQVTVSS | low polyreactivity
40 | QVQHVESGGGLVQAGGRLRLSCAASGSIFVAYAMGWSRTAPGKERELVAAITYSAGSTYYADSVKGRITISRDNAKNTVYLQMNSLKPEDTAVYYCAADAMVFSFIGYEYWGQGTQVTVSS | low polyreactivity
41 | QVQHVESGGGLVQAGGSLLLSCAASGSITVSYMGWYRQAPGKERELVAAISFSGASTYYADSVKGRFTISRDDAKNTVYLQMNSLKPEDTAVYYCAAEYVIYYWFEWLDLDYWGQGTQVTVSS | high polyreactivity
42 | QVQHVESGGGLVQAGGSLRFSCAASGFIFIRNGMGWYRQAPGKERELVAAISARGGSTYYADSVKGRFTISRDNAKNTVYLQMNSLKPEDTALYYCAAYRPRKYDYWGQGTQVTVSS | high polyreactivity
43 | QVQHVESGGGLVQAGGSLRLICAASGFSFILYAMGWYRQARGKERELVAAISSSGGRRYYADSVKGRFTISRDNANNTVYIQMNSLKPEDTAVYYCNAVRTVNDYHYDYWGQGTQVTVSS | high polyreactivity
